Data on 49 molecules can be found in patent US20160250307A1 (IMMATICS BIOTECHNOLOGIES, published 2016).

The chains are these.
B1: YLSQAADGAKVL (peptide)
peptide: YLSQAADGAKVL
B2: RLIEEIKNV (peptide)
peptide: RLIEEIKNV
B3: RLYTMDGITV (peptide)
peptide: RLYTMDGITV
B4: FLWTEQAHTV (peptide)
peptide: FLWTEQAHTV
B5: FLIAEYFEHV (peptide)
peptide: FLIAEYFEHV
B6: KQMEPLHAV (peptide)
peptide: KQMEPLHAV
B7: RLLAKIICL (peptide)
peptide: RLLAKIICL
B8: RIISGLVKV (peptide)
peptide: RIISGLVKV
B9: YLGEEYVKA (peptide)
peptide: YLGEEYVKA
B10: RLIDRIKTV (peptide)
peptide: RLIDRIKTV
B11: SLVGDIGNVNM (peptide)
peptide: SLVGDIGNVNM
B12: QLIEVSSPITL (peptide)
peptide: QLIEVSSPITL
B13: KLSNVLQQV (peptide)
peptide: KLSNVLQQV
B14: ALNAVRLLV (peptide)
peptide: ALNAVRLLV
B15: TLGQIWDV (peptide)
peptide: TLGQIWDV
B16: RIAGIRGIQGV (peptide)
peptide: RIAGIRGIQGV
B17: LIGEFLEKV (peptide)
peptide: LIGEFLEKV
B18: KVLDKVFRA (peptide)
peptide: KVLDKVFRA
B19: VMQDPEFLQSV (peptide)
peptide: VMQDPEFLQSV
B20: ALLEADVNIKL (peptide)
peptide: ALLEADVNIKL
B21: ILSPLSVAL (peptide)
peptide: ILSPLSVAL
B22: ILADLNLSV (peptide)
peptide: ILADLNLSV
B23: KLGAVFNQV (peptide)
peptide: KLGAVFNQV
B24: KLFEEIREI (peptide)
peptide: KLFEEIREI
B25: ALLGKLDAI (peptide)
peptide: ALLGKLDAI
B26: NLIDLDDLYV (peptide)
peptide: NLIDLDDLYV
B27: KIQEILTQV (peptide)
peptide: KIQEILTQV
B28: YLEPYLKEV (peptide)
peptide: YLEPYLKEV
B29: LLLGERVAL (peptide)
peptide: LLLGERVAL
B30: ALTSVVVTL (peptide)
peptide: ALTSVVVTL
B31: RLFNDPVAMV (peptide)
peptide: RLFNDPVAMV
B32: YIHNILYEV (peptide)
peptide: YIHNILYEV
B33: ALAEALKEV (peptide)
peptide: ALAEALKEV
B34: KLLDTMVDTFL (peptide)
peptide: KLLDTMVDTFL
B35: ALLELDEPLVL (peptide)
peptide: ALLELDEPLVL
B36: KLYQEVEIASV (peptide)
peptide: KLYQEVEIASV
B37: RLIDLHTNV (peptide)
peptide: RLIDLHTNV
B38: KIADFELPTI (peptide)
peptide: KIADFELPTI
B39: KIAELLENV (peptide)
peptide: KIAELLENV
B40: LLLDKLILL (peptide)
peptide: LLLDKLILL
B41: NLAEVVERV (peptide)
peptide: NLAEVVERV
B42: WLIEDGKVVTV (peptide)
peptide: WLIEDGKVVTV
B43: RLFADILNDV (peptide)
peptide: RLFADILNDV
B44: KLLDEVTYLEA (peptide)
peptide: KLLDEVTYLEA
B45: KLLDNWDSV (peptide)
peptide: KLLDNWDSV
B46: KLLDLETERILL (peptide)
peptide: KLLDLETERILL
B47: TLPDFRLPEI (peptide)
peptide: TLPDFRLPEI
B48: ALQDAIRQL (peptide)
peptide: ALQDAIRQL
B49: ALQDQLVLV (peptide)
peptide: ALQDQLVLV

For one assay, the target named is HLA-A*02 (human). Kind of assay: UV-ligand exchange, anti-b2m ELISA; grade: exchange yield >=20%. For orientation: ELISA stands for enzyme-linked immunosorbent assay.
With B1, the peptide exchange yield fell in the range of 20 to 50%.

B2 registered a peptide exchange yield of 20 to 50%.

For B3, the peptide exchange yield lay within 20 to 50%.

B4 yielded a peptide exchange yield of 20 to 50%.

Molecule B5 displayed a peptide exchange yield of 20 to 50%.

B6: the peptide exchange yield was 20 to 50%.

The molecule B7 registered a peptide exchange yield of 20 to 50%.

In the case of B8, the peptide exchange yield is 20 to 50%.

On to B9, for which the peptide exchange yield lay in the range of 20 to 50%.

Take B10: the peptide exchange yield was in the range of 20 to 50%.

With B11, the peptide exchange yield is 20 to 50%.

The target of another assay is HLA-A*02 (human). Kind of assay: UV-ligand exchange, anti-b2m ELISA; grade: exchange yield >=75%.
B12 returned a peptide exchange yield of at least 75%.

Molecule B13 gave a peptide exchange yield of at least 75%.

On to B14, for which the peptide exchange yield is at least 75%.

In turn, B15 yielded a peptide exchange yield of at least 75%.

As for B16, the peptide exchange yield is at least 75%.

As to B17, the peptide exchange yield was at least 75%.

Regarding B18, the peptide exchange yield was at least 75%.

In the case of B19, the peptide exchange yield is at least 75%.

B20 yielded a peptide exchange yield of at least 75%.

Molecule B21 showed a peptide exchange yield of at least 75%.

Take B22: the peptide exchange yield was at least 75%.

Consider B23, for which the peptide exchange yield was at least 75%.

The molecule B24 yielded a peptide exchange yield of at least 75%.

With B25, the peptide exchange yield was at least 75%.

The molecule B26 had a peptide exchange yield of at least 75%.

B27 showed a peptide exchange yield of at least 75%.

B28 returned a peptide exchange yield of at least 75%.

Turning to B29, the peptide exchange yield was at least 75%.

Turning to B30, the peptide exchange yield was at least 75%.

With B31, the peptide exchange yield is at least 75%.

As for B32, the peptide exchange yield is at least 75%.

B33 displayed a peptide exchange yield of at least 75%.

The molecule B34 gave a peptide exchange yield of at least 75%.

B35: the peptide exchange yield is at least 75%.

In turn, B36 showed a peptide exchange yield of at least 75%.

In turn, B37 showed a peptide exchange yield of at least 75%.

The molecule B38 had a peptide exchange yield of at least 75%.

The molecule B39 displayed a peptide exchange yield of at least 75%.

Molecule B40 displayed a peptide exchange yield of at least 75%.

In turn, B41 gave a peptide exchange yield of at least 75%.

B42: the peptide exchange yield was at least 75%.

The molecule B43 returned a peptide exchange yield of at least 75%.

As for B44, the peptide exchange yield was at least 75%.

As for B45, the peptide exchange yield was at least 75%.

Consider B46, for which the peptide exchange yield was at least 75%.

On to B47, for which the peptide exchange yield is at least 75%.

Consider B48, for which the peptide exchange yield is at least 75%.

The molecule B49 gave a peptide exchange yield of at least 75%.
